# Measurements: article PMC11869524, “A leucine responsive small RNA AbcR200 regulates expression of the lactate utilization (lut) operon in Acinetobacter baumannii DS002” (The Journal of Biological Chemistry, 2025)
# “And” between values parts separate entries of the source, which are not always exact repeats. Identical values can stand only once.
# B1: A. baumannii DS002 Lrp protein (AbLrp^C6His), leucine responsive regulatory protein (natural protein, Acinetobacter baumannii DS002, UniProt V5VJ98 1-155, looked up)
# chain: MRPLDRIDRMILDILQREGRIAISELASRVNLSTTPCSERVKRLERDGIIMGYYARLNPAYVDRNLLVFLEIKLSAKSGDVFDQVARDLVEIPEVLECHLISGEFDYLVKARLKEMSAYRRLLGDLLKKLPASASSHSYVVMEEVKETLYLDVSK
# notes: Leucine responsive regulatory protein (Lrp) of Acinetobacter baumannii DS002; lrp gene amplified from chromosomal DNA with primers HS36 FP/HS36 RP and cloned in pET23b as NdeI and XhoI fragment (pHS10); not shown: His6, C-terminal, kept
# Assays:
# [1] = target: the molecule itself; assay: cross-linking; 23 uM purified AbLrp^C6His dialyzed against 20 mM Hepes, 150 mM NaCl, pH 8.0; DSS (3 mM), 30 min at room temperature, quenched with Tris-Cl; SDS-PAGE (12.5%) and Western blot with anti-His antibodies; without leucine, with or without DNA (300 ng) containing the Lrp binding site
# [2] = target: the molecule itself; assay: cross-linking; 23 uM purified AbLrp^C6His dialyzed against 20 mM Hepes, 150 mM NaCl, pH 8.0; DSS (3 mM), 30 min at room temperature, quenched with Tris-Cl; SDS-PAGE (12.5%) and Western blot with anti-His antibodies; with leucine (5 mM), with or without DNA (300 ng) containing the Lrp binding site
protein,measurement,setting,value
B1,stoichiometry N,[1],4
same,stoichiometry N,[2],2 and 3
